From patent US20220204583A1

Molecular target: recombinant transferrin receptor ectodomain (UniProt Q62351)
Assay: competition: 8D3 pre-incubated with 2 µM soluble rTfR ectodomain, then binding to live bEnd.3 cells at 4° C., IRDye detection

recombinant transferrin receptor ectodomain, sequence (Q62351 89-763 limits assumed): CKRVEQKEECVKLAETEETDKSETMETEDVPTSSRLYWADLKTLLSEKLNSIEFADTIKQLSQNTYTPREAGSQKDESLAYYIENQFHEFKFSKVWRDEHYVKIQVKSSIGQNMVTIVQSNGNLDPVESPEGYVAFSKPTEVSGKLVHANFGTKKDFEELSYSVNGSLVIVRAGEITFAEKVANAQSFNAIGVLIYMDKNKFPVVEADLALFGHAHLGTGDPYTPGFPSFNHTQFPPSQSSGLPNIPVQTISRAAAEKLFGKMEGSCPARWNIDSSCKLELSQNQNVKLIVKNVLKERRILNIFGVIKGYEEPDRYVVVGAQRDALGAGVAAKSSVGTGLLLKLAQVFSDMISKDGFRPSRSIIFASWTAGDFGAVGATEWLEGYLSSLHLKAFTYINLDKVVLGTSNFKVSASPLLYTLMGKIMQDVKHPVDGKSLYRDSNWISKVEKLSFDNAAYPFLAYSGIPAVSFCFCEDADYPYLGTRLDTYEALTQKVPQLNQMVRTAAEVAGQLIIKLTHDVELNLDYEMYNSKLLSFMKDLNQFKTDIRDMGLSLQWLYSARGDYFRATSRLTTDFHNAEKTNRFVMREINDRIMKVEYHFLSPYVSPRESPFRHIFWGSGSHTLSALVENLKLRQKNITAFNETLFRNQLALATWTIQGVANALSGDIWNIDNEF

MBEC binding signal with rTfR competition, percent of the non-competition signal: 20%
B1: anti-transferrin receptor antibody (8D3) (antibody, from another filing, V domains shown)
VH: EVQLVESGGGLVQPGNSLTLSCVASGFTFSNYGMHWIRQAPKKGLEWIAMIYYDSSKMNYADTVKGRFTISRDNSKNTLYLEMNSLRSEDTAMYYCAVPTSHYVVDVWGQGVSVTVSS
VL: DIQMTQSPASLSASLEEIVTITCQASQDIGNWLAWYQQKPGKSPQLLIYGATSLADGVPSRFSGSRSGTQFSLKISRVQVEDIGIYYCLQAYNTPWTFGGGTKLELK
